Reference: patent US20250179152A1 (TEXAS A AND M UNIVERSITY SYSTEM, published 2025)
Where “and” joins values, the source holds several entries; their conditions need not be identical. Identical values can stand only once.

What was measured:
[1] = target: T1, human IgG1 Fc-tagged RBD, E484Q (SARS-CoV-2; human, UniProt P0DTC2 319-541); experiment: ELISA; DARPin coated, Fc-tagged RBD titrated
T1 construct: domain: RBD

[2] = target: T2, human IgG1 Fc-tagged RBD, F486V (SARS-CoV-2; human, UniProt P0DTC2 319-541); experiment: ELISA; DARPin coated, Fc-tagged RBD titrated
T2 construct: domain: RBD

[3] = target: T3, human IgG1 Fc-tagged RBD, N439K (SARS-CoV-2; human, UniProt P0DTC2 319-541); experiment: ELISA; DARPin coated, Fc-tagged RBD titrated
T3 construct: domain: RBD

[4] = target: T4, human IgG1 Fc-tagged RBD, Y453F (SARS-CoV-2; human, UniProt P0DTC2 319-541); experiment: ELISA; DARPin coated, Fc-tagged RBD titrated
T4 construct: domain: RBD

[5] = target: T5, human IgG1 Fc-tagged RBD, K417E (SARS-CoV-2; human, UniProt P0DTC2 319-541); experiment: ELISA; DARPin coated, Fc-tagged RBD titrated
T5 construct: domain: RBD

[6] = target: T6, human IgG1 Fc-tagged RBD, E484K (SARS-CoV-2; human, UniProt P0DTC2 319-541); experiment: ELISA; DARPin coated, Fc-tagged RBD titrated
T6 construct: domain: RBD

[7] = target: T7, human IgG1 Fc-tagged RBD, L455F (SARS-CoV-2; human, UniProt P0DTC2 319-541); experiment: ELISA; DARPin coated, Fc-tagged RBD titrated
T7 construct: domain: RBD

[8] = target: T8, human IgG1 Fc-tagged RBD, L452R + T478K (SARS-CoV-2; human, UniProt P0DTC2 319-541); experiment: ELISA; DARPin coated, Fc-tagged RBD titrated
T8 construct: domain: RBD

[9] = target: T9, human IgG1 Fc-tagged RBD, T478K (SARS-CoV-2; human, UniProt P0DTC2 319-541); experiment: ELISA; DARPin coated, Fc-tagged RBD titrated
T9 construct: domain: RBD

[10] = target: T10, human IgG1 Fc-tagged RBD, L452R + E484Q (SARS-CoV-2; human, UniProt P0DTC2 319-541); experiment: ELISA; DARPin coated, Fc-tagged RBD titrated
T10 construct: domain: RBD

[11] = target: T11, human IgG1 Fc-tagged RBD, Wuhan-1 (SARS-CoV-2 (Wuhan-1); human, UniProt P0DTC2 319-541); experiment: ELISA; DARPin coated, Fc-tagged RBD titrated
T11 construct: domain: RBD

[12] = target: T12, human IgG1 Fc-tagged RBD, V445A (SARS-CoV-2; human, UniProt P0DTC2 319-541); experiment: ELISA; DARPin coated, Fc-tagged RBD titrated
T12 construct: domain: RBD

[13] = target: T13, human IgG1 Fc-tagged RBD, K444Q (SARS-CoV-2; human, UniProt P0DTC2 319-541); experiment: ELISA; DARPin coated, Fc-tagged RBD titrated
T13 construct: domain: RBD

[14] = target: T14, human IgG1 Fc-tagged RBD, F490S (SARS-CoV-2; human, UniProt P0DTC2 319-541); experiment: ELISA; DARPin coated, Fc-tagged RBD titrated
T14 construct: domain: RBD

[15] = target: T15, human IgG1 Fc-tagged RBD, L452R (SARS-CoV-2; human, UniProt P0DTC2 319-541); experiment: ELISA; DARPin coated, Fc-tagged RBD titrated
T15 construct: domain: RBD

[16] = target: T16, human IgG1 Fc-tagged RBD, S494P (SARS-CoV-2; human, UniProt P0DTC2 319-541); experiment: ELISA; DARPin coated, Fc-tagged RBD titrated
T16 construct: domain: RBD

[17] = target: T17, human IgG1 Fc-tagged RBD, G476S (SARS-CoV-2; human, UniProt P0DTC2 319-541); experiment: ELISA; DARPin coated, Fc-tagged RBD titrated
T17 construct: domain: RBD

[18] = target: T18, human IgG1 Fc-tagged RBD, G446V (SARS-CoV-2; human, UniProt P0DTC2 319-541); experiment: ELISA; DARPin coated, Fc-tagged RBD titrated
T18 construct: domain: RBD

[19] = target: T19, human IgG1 Fc-tagged RBD, S477N (SARS-CoV-2; human, UniProt P0DTC2 319-541); experiment: ELISA; DARPin coated, Fc-tagged RBD titrated
T19 construct: domain: RBD

[20] = target: T20, human IgG1 Fc-tagged RBD, F486S (SARS-CoV-2; human, UniProt P0DTC2 319-541); experiment: ELISA; DARPin coated, Fc-tagged RBD titrated
T20 construct: domain: RBD

[21] = target: Δ19 spike protein of B.1.617.2 on pseudotyped lentivirus (SARS-CoV-2 (B.1.617.2)); experiment: cell-based or functional assay
[22] = target: Δ19 spike protein of strain B.1.351 on pseudotyped lentivirus (SARS-CoV-2 (B.1.351)); experiment: cell-based or functional assay
[23] = target: Δ19 spike protein of C.37 on pseudotyped lentivirus (SARS-CoV-2 (C.37)); experiment: cell-based or functional assay
[24] = target: T11, human IgG1 Fc-tagged RBD, Wuhan-1
[25] = target: human IgG1 Fc-tagged RBD of Omicron (SARS-CoV-2 (Omicron); human)
[26] = target: spike protein of authentic SARS-CoV-2 B.1.351 (SARS-CoV-2 (B.1.351)); experiment: cell-based or functional assay
[27] = target: spike protein of authentic SARS-CoV-2 B.1.617.2/AY1 (SARS-CoV-2 (B.1.617.2.AY1)); experiment: cell-based or functional assay
[28] = target: spike protein of authentic SARS-CoV-2 B.1.1.519/BA.1 (SARS-CoV-2 (BA.1)); experiment: cell-based or functional assay
[29] = target: spike protein of authentic SARS-CoV-2 B.1.1.519/BA.2 (SARS-CoV-2 (BA.2)); experiment: cell-based or functional assay
[30] = target: spike protein of authentic SARS-CoV-2 B.1.617.2 (SARS-CoV-2 (B.1.617.2)); experiment: cell-based or functional assay
[31] = target: spike protein of authentic SARS-CoV-2 B.1.1.519/BA.1.1 (SARS-CoV-2 (BA.1.1)); experiment: cell-based or functional assay

B1: FSR16m (designed binder)
chain: MGMEQKLISEEDLDGYIPEAPRDGQAYVRKDGEWVLLSTFLGGGGSLQGGGGSLQGSDLGKKLLEAARAGQDDEVRILMANGADVNALDLFGVTPLHLAAERGHLEIVEVLLKNGADVNAGDAFGRTPLHLAALGGHLEIVEVLLKNGADVNACDLYGVTPLHLAAGLGHLEIVEVLLKNGADVNAQDKFGKTAFDISIDNGNEDLAEILQSSSKLAAALEHHHHHH
[1]
  EC50: 0.34 nM
[2]
  EC50: 300 nM
[3]
  EC50: 0.75 nM
[4]
  EC50: 0.74 nM
[5]
  EC50: 300 nM
[6]
  EC50: 0.21 nM
[7]
  EC50: 0.1 nM
[8]
  EC50: 0.13 nM
[9]
  EC50: 0.19 nM
[10]
  EC50: 0.21 nM
[11]
  EC50: 0.59 nM
[12]
  EC50: 0.46 nM
[13]
  EC50: 1.03 nM
[14]
  EC50: 0.15 nM
[15]
  EC50: 0.37 nM
[16]
  EC50: 0.26 nM
[17]
  EC50: 5.73 nM
[18]
  EC50: 7.65 nM
[19]
  EC50: 0.63 nM
[20]
  EC50: ≥ 300 nM
[21]
  Neutralization IC50, pseudotyped lentivirus: 66 pM and 4.8 ng/mL
[22]
  Neutralization IC50, pseudotyped lentivirus: 18 pM and 1.3 ng/ml
[23]
  Neutralization IC50, pseudotyped lentivirus: 0.9 ng/ml and 13 pM
[24]
  Kd: < 0.001 nM
[25]
  Kd: 3.65 nM
[26]
  Neutralization IC50, authentic SARS-CoV-2 virus: 3.4 ngml^-1
[27]
  Neutralization IC50, authentic SARS-CoV-2 virus: 3.3 ngml^-1
[28]
  Neutralization IC50, authentic SARS-CoV-2 virus: 44.7 ngml^-1
[29]
  Neutralization IC50, authentic SARS-CoV-2 virus: 33.3 ngml^-1
[30]
  Neutralization IC50, authentic SARS-CoV-2 virus: 2.2 ngml^-1
[31]
  Neutralization IC50, authentic SARS-CoV-2 virus: 7.4 ngml^-1

B2: FSR22 (designed binder)
chain: MGSSHHHHHHSSGMEQKLISEEDLDGYIPEAPRDGQAYVRKDGEWVLLSTFLGGGGSLQGGGGSLQGSDLGKKLLEAARAGQDDEVRILMANGADVNACDPSGITPLHLAADKGHLEIVEVLLKYGADVNAMDVWGRTPLHLAAFTGHLEIVEVLLKYGADVNACDLNGYTPLHLAAGRGHLEIVEVLLKNGAGVNAQDKFGKTAFDISIDNGNEDLAEILQSSS
[1]
  EC50: 4.05 nM
[2]
  EC50: 105 nM
[3]
  EC50: 2.63 nM
[4]
  EC50: 3.97 nM
[5]
  EC50: 300 nM
[6]
  EC50: 4.57 nM
[7]
  EC50: 9.24 nM
[8]
  EC50: 7.83 nM
[9]
  EC50: 15.2 nM
[10]
  EC50: 4.05 nM
[11]
  EC50: 1.96 nM
[12]
  EC50: 3.43 nM
[13]
  EC50: 5.92 nM
[14]
  EC50: 1.57 nM
[15]
  EC50: 1.87 nM
[16]
  EC50: 0.61 nM
[17]
  EC50: 27.2 nM
[18]
  EC50: 30.6 nM
[19]
  EC50: 1.57 nM
[20]
  EC50: 70.5 nM
[21]
  Neutralization IC50, pseudotyped lentivirus: 13.3 ng/ml and 188 pM
[22]
  Neutralization IC50, pseudotyped lentivirus: 9.5 ng/ml and 135 pM
[23]
  Neutralization IC50, pseudotyped lentivirus: 6.3 ng/ml and 89 pM
[24]
  Kd: 12.3 nM
[25]
  Kd: 2.63 nM
[26]
  Neutralization IC50, authentic SARS-CoV-2 virus: 57.2 ngml^-1
[27]
  Neutralization IC50, authentic SARS-CoV-2 virus: 44.2 ngml^-1
[28]
  Neutralization IC50, authentic SARS-CoV-2 virus: 169 ngml^-1
[29]
  Neutralization IC50, authentic SARS-CoV-2 virus: 216 ngml^-1
[30]
  Neutralization IC50, authentic SARS-CoV-2 virus: 41.7 ngml^-1
[31]
  Neutralization IC50, authentic SARS-CoV-2 virus: 41.2 ngml^-1

B3: SR16m (designed binder)
chain: MGSSDLGKKLLEAARAGQDDEVRILMANGADVNALDLFGVTPLHLAAERGHLEIVEVLLKNGADVNAGDAFGRTPLHLAALGGHLEIVEVLLKNGADVNACDLYGVTPLHLAAGLGHLEIVEVLLKNGADVNAQDKFGKTAFDISIDNGNEDLAEILQSSSKLAAALEHHHHHH
[21]
  Neutralization IC50, pseudotyped lentivirus: 77.8 nM
[22]
  Neutralization IC50, pseudotyped lentivirus: 420 nM

B4: SR22 (designed binder)
chain: MGSSHHHHHHSSGLVPRGSHMEQKLISEEDLGSDLGKKLLEAARAGQDDEVRILMANGADVNACDPSGITPLHLAADKGHLEIVEVLLKYGADVNAMDVWGRTPLHLAAFTGHLEIVEVLLKYGADVNACDLNGYTPLHLAAGRGHLEIVEVLLKNGAGVNAQDKFGKTAFDISIDNGNEDLAEILQSSS
[21]
  Neutralization IC50, pseudotyped lentivirus: 69.8 nM
[22]
  Neutralization IC50, pseudotyped lentivirus: 1100 nM
